Here are results for one molecule from paper PMC3258384 (Journal of Molecular Biology, 2011).

This test has as its target Human calmodulin (human, UniProt P0DP23 1-149). As to the kind of experiment: circular dichroism. (Circular dichroism is the unequal absorption of left and right circularly polarised light.)

Take ARKEVIRNKIRAIGKMARVFSVLR [pCaN peptide, the CaM binding region in the RD of αCaN]: the binding result is “binds”.
